These results are taken from patent publication US20220033522A1 (Janssen / Centocor, published 2022).

Read-outs that look alike come from different tables or passages of the source.

Assay [1] concerns the target T1, biotinylated SARS-CoV-2 spike glycoprotein (SARS-CoV-2, UniProt P0DTC2 16-1213).
Assay [2] deals with T2, SARS-CoV-2 spike glycoprotein (his-tagged SARS-CoV-2 RBD) (SARS-CoV-2, UniProt P0DTC2 319-541).
T2 construct: domain: RBD; also called COVID-19 RBD; wild-type spike glycoprotein
Put plainly: BLI (Octet), his-tagged SARS-CoV-2 RBD on anti-His biosensor. For orientation: BLI is a label-free optical method that tracks binding on a fibre tip over time.

In assay [3] the target is T3, polymeric immunoglobulin receptor (pIgR), his-tagged (human, UniProt P01833 19-638). Put plainly: BLI (Octet), his-tagged pIgR on anti-His biosensor.
T3 sequence (P01833 19-638 limits assumed): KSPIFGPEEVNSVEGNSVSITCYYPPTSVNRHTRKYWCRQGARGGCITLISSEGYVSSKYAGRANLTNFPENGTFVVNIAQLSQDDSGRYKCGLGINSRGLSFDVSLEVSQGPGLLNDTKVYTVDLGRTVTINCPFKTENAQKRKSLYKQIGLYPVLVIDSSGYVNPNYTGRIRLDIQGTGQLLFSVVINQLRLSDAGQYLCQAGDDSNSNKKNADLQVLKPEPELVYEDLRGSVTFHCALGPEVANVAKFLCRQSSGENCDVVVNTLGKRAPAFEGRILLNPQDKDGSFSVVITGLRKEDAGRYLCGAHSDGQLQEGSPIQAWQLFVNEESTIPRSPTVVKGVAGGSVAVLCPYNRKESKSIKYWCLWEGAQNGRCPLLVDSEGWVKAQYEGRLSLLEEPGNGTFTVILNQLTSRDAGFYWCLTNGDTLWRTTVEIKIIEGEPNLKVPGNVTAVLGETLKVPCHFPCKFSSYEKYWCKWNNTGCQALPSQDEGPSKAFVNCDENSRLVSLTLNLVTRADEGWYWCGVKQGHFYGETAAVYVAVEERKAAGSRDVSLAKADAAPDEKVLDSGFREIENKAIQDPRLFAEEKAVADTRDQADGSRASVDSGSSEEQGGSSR
In assay [4] the target is T3, polymeric immunoglobulin receptor …. Put plainly: BLI (Octet): his-tagged pIgR on anti-His (HIS2) biosensors, protein in solution at 10 µg/mL, 90 s association, 90 s dissociation.
Assay [5] concerns the target T1, biotinylated SARS-CoV-2 spike …. This is another data set of the same source.

B1: SAD-S35 (antibody, human IgG1, kappa, V domains shown)
VH: QVQLVESGGGLVQPGGSLRLSCAASGITVSSNYMSWVRQAPGKGLEWVSVIYSGGSTYYADSVKGRFSISRDNSKNTLYLQMNSLRAEDTAVYYCARDLQERGGMDVWGQGTTVTVSS
VL: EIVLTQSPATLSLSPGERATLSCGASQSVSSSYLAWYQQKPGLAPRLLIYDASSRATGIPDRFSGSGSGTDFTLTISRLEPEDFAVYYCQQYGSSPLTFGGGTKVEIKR
notes: also called Acro Biosystems cat. #SAD-S35
As a reminder, the IC50 is the concentration that gives 50% inhibition. The low end stands for greater potency, the high end for weaker potency. What is called Kd is the equilibrium constant for the complex coming apart. A higher Kd goes with weaker binding. Broadly, the koff is the rate constant with which the complex falls apart. In assay [1], B1 had an IC50 of 0.323 nM. Moreover, in assay [2], the dissociation constant (Kd) came to 14.3 nM, the “Relative Kd (compared to CR3022)” value amounted to 12 and the koff came to 8.91e-06 s⁻¹.

B2: CR3022 (antibody)
heavy: not shown
light: […]
As to B2, the binding result in assay [3] is on record as “no binding (tested: 10 µg/mL)”.

B3: D001 (antibody, V domains shown)
VH: QVQLQQSGPELMKPGASVKISCKASGYSFTNYYIHWVKQSHGKSLEWIGYIDPFNGGTSDNLKFKGAATLTVDKSSSTAYMHLSSLTSEDSAVYYCARSEYDPYYVMDYWGQGTSVTVSS
VL: EIVLTQSPDTLSVTPGDSVSLSCRASQSISSNLHWYQQKSHESPRLLIKYASQSISGIPSRFSGSGSGTDFTLSINSVETEDFGIYFCQQTNFWPYTFGGGTKLEIKR
notes: also called Sino Biological cat. #40150-D001
In assay [1], B3 registered an IC50 of 0.299 nM. For the same molecule, in assay [4], the binding result is on record as “no binding (tested: 10 µg/mL)”. In assay [2], this molecule returned a Kd of 15 nM and a koff of 1.1e-05 s⁻¹. For the same molecule, the IC50 in assay [5] was 0.2 nM.
